T1: HA95 (human (endogenous in Bjab and HeLa), UniProt Q9ULX6 1-646)
T1 sequence (looked up): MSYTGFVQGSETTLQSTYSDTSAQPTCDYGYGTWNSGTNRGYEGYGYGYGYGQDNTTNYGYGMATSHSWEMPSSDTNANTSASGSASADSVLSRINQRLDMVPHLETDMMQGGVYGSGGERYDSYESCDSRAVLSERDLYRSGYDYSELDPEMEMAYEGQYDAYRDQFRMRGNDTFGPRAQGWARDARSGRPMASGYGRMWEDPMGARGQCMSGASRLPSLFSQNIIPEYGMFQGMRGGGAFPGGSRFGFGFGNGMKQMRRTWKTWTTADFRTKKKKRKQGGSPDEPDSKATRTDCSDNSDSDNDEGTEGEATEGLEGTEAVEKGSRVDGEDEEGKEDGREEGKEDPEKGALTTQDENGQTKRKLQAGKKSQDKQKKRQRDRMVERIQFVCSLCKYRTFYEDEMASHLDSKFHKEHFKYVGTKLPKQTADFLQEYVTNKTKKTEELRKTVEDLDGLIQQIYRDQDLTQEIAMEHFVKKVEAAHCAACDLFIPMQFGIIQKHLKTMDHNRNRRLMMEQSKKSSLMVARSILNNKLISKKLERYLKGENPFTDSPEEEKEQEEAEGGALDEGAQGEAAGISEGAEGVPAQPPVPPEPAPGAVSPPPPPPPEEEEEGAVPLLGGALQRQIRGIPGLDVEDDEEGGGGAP


What follows are binders tested against T1, HA95 (assay: far-Western, overlay or dot blot).

| Binder | binding result |
| --- | --- |
| GST–LAP2β(1–452) (domain or fragment, UniProt Q62733 1-452, looked up) MPEFLEDPSVLTKDKLKSELVANNVTLPAGEQRKDVYVQLYLQHLTARNRPPLAAGANSKGPPDFSSDEEREPTPVLGSGASVGRGRGAVGRKATKKTDKPRPEDKDDLDVTELSNEELLEQLVRYGVNPGPIVGTTRKLYEKKLLKLREQGAESRSSTPLPTVSSSAENTRQNGSNDSDRYSDNDEDSKIELKLEKREPLKGRAKTPVTLKQRRIEHNQSYSEAGVTETEWTSGSSKGGPLQALTRESTRGSRRTPRRRVEPSQHFRVDGAVISESTPIAETIKASSNDSLVANRLTGNFKHASSILPITEFSDITRRTPKKPLTRAEVGEKTEERRVERDILKEMFPYEASTPTGISASCRRPIKGAAGRPLELSDFRMEESFSSKYVPKYVPLADVKSEKTKKGRSVPMWIKMLLFALVAGFLFLVYQAMETNQGNPFTNFLQDTKISN | binds |
| GST–LAP2β(1–397) (domain or fragment, UniProt Q62733 1-397, looked up) MPEFLEDPSVLTKDKLKSELVANNVTLPAGEQRKDVYVQLYLQHLTARNRPPLAAGANSKGPPDFSSDEEREPTPVLGSGASVGRGRGAVGRKATKKTDKPRPEDKDDLDVTELSNEELLEQLVRYGVNPGPIVGTTRKLYEKKLLKLREQGAESRSSTPLPTVSSSAENTRQNGSNDSDRYSDNDEDSKIELKLEKREPLKGRAKTPVTLKQRRIEHNQSYSEAGVTETEWTSGSSKGGPLQALTRESTRGSRRTPRRRVEPSQHFRVDGAVISESTPIAETIKASSNDSLVANRLTGNFKHASSILPITEFSDITRRTPKKPLTRAEVGEKTEERRVERDILKEMFPYEASTPTGISASCRRPIKGAAGRPLELSDFRMEESFSSKYVPKYVPLA | binds |
| GST–LAP2β(1–298) (domain or fragment, UniProt Q62733 1-298, looked up) MPEFLEDPSVLTKDKLKSELVANNVTLPAGEQRKDVYVQLYLQHLTARNRPPLAAGANSKGPPDFSSDEEREPTPVLGSGASVGRGRGAVGRKATKKTDKPRPEDKDDLDVTELSNEELLEQLVRYGVNPGPIVGTTRKLYEKKLLKLREQGAESRSSTPLPTVSSSAENTRQNGSNDSDRYSDNDEDSKIELKLEKREPLKGRAKTPVTLKQRRIEHNQSYSEAGVTETEWTSGSSKGGPLQALTRESTRGSRRTPRRRVEPSQHFRVDGAVISESTPIAETIKASSNDSLVANRLT | binds |
| GST–LAP2β(137–373) (domain or fragment, UniProt Q62733 137-373, looked up) TRKLYEKKLLKLREQGAESRSSTPLPTVSSSAENTRQNGSNDSDRYSDNDEDSKIELKLEKREPLKGRAKTPVTLKQRRIEHNQSYSEAGVTETEWTSGSSKGGPLQALTRESTRGSRRTPRRRVEPSQHFRVDGAVISESTPIAETIKASSNDSLVANRLTGNFKHASSILPITEFSDITRRTPKKPLTRAEVGEKTEERRVERDILKEMFPYEASTPTGISASCRRPIKGAAGRP | binds |
| GST–LAP2β(137–298) (domain or fragment, UniProt Q62733 137-298, looked up) TRKLYEKKLLKLREQGAESRSSTPLPTVSSSAENTRQNGSNDSDRYSDNDEDSKIELKLEKREPLKGRAKTPVTLKQRRIEHNQSYSEAGVTETEWTSGSSKGGPLQALTRESTRGSRRTPRRRVEPSQHFRVDGAVISESTPIAETIKASSNDSLVANRLT | binds |
| GST–LAP2β(243–397) (domain or fragment, UniProt Q62733 243-397, looked up) QALTRESTRGSRRTPRRRVEPSQHFRVDGAVISESTPIAETIKASSNDSLVANRLTGNFKHASSILPITEFSDITRRTPKKPLTRAEVGEKTEERRVERDILKEMFPYEASTPTGISASCRRPIKGAAGRPLELSDFRMEESFSSKYVPKYVPLA | binds |
| GST–LAP2β(243–373) (domain or fragment, UniProt Q62733 243-373, looked up) QALTRESTRGSRRTPRRRVEPSQHFRVDGAVISESTPIAETIKASSNDSLVANRLTGNFKHASSILPITEFSDITRRTPKKPLTRAEVGEKTEERRVERDILKEMFPYEASTPTGISASCRRPIKGAAGRP | binds |
| GST–LAP2β(299–397) (domain or fragment, UniProt Q62733 299-397, looked up) GNFKHASSILPITEFSDITRRTPKKPLTRAEVGEKTEERRVERDILKEMFPYEASTPTGISASCRRPIKGAAGRPLELSDFRMEESFSSKYVPKYVPLA | binds |
| GST–LAP2β(299–373) (domain or fragment, UniProt Q62733 299-373, looked up) GNFKHASSILPITEFSDITRRTPKKPLTRAEVGEKTEERRVERDILKEMFPYEASTPTGISASCRRPIKGAAGRP | binds |
